How the values were obtained:
[1] = molecular target: ParC WT;ParE (Escherichia coli;Escherichia coli, UniProt P0AFI2;P20083 1-752;1-630, |); assay: fluorescence anisotropy
[2] = molecular target: ParC R564D;ParE (Escherichia coli;Escherichia coli, UniProt P0AFI2;P20083 1-752;1-630, R564D|); assay: fluorescence anisotropy

B1: 45mer duplex with strong topo II site, FAM (dsDNA)
DNA 1: GCCTATCCGAGGATGACGATGCGCGCATCGTCATACAGCGAATGG
DNA 2: CCATTCGCTGTATGACGATGCGCGCATCGTCATCCTCGGATAGGC
B1 was tested, and the Kd [1] was 25 5 and the Kd [2] was 15 3.

From PMC3864023
